For data set [1], the target named is T1, human F-box-containing DNA helicase FBH1, FLAG-tagged and biotinylated, non-ubiquitylated (human), Q8NFZ0.
T1 chain: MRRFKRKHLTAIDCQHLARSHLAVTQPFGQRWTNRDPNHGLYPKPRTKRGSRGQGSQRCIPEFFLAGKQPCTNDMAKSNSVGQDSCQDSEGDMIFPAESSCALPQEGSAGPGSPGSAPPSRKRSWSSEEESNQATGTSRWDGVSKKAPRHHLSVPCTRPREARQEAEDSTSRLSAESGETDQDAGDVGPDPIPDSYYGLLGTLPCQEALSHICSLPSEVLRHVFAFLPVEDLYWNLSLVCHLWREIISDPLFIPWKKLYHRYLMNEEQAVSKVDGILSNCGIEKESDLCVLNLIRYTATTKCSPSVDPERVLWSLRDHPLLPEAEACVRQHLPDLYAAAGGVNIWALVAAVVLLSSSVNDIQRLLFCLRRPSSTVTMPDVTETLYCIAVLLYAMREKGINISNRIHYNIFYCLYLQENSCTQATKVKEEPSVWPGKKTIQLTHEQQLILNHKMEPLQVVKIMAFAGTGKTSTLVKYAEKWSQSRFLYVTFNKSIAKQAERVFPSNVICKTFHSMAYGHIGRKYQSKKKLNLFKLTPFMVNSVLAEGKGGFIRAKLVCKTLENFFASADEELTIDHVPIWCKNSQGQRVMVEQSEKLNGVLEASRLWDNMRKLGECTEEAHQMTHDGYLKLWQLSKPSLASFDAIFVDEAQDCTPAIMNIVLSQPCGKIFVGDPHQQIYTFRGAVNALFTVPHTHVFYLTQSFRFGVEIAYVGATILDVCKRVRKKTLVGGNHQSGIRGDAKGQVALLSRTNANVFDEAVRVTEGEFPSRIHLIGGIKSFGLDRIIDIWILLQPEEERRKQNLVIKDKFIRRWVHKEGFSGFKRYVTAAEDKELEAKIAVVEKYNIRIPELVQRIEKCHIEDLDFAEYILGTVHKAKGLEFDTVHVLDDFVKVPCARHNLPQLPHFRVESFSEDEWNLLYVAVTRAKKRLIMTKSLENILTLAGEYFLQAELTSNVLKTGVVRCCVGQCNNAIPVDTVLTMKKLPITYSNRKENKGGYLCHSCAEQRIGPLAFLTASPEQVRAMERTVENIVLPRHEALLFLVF
Put plainly: single-molecule TIRFM. To be noted: remark: other sources report otherwise.

For another data set, the target named is RAD51 (UniProt Q06609 1-339). Put plainly: single-molecule FRET.

B1: human RAD51 protein, Q06609 1-339 (natural protein)
chain: MAMQMQLEANADTSVEEESFGPQPISRLEQCGINANDVKKLEEAGFHTVEAVAYAPKKELINIKGISEAKADKILAEAAKLVPMGFTTATEFHQRRSEIIQITTGSKELDKLLQGGIETGSITEMFGEFRTGKTQICHTLAVTCQLPIDRGGGEGKAMYIDTEGTFRPERLLAVAERYGLSGSDVLDNVAYARAFNTDHQTQLLYQASAMMVESRYALLIVDSATALYRTDYSGRGELSARQMHLARFLRMLLRLADEFGVAVVITNQVVAQVDGAAMFAADPKKPIGGNIIAHASTTRLYLRKGRGETRICKIYDSPCLPEAEAMFAINADGVGDAKD
modifications: here or on the partner: biotin on the underlined lysine of the BAP sequence (…)
In the case of B1, the kon in data set [1] was found to be 2.7e+07 M⁻¹ s⁻¹.

B2: Cy3/Cy5-labeled poly(dT)60 (oligo g) (ssDNA)
DNA: TTTTTTTTTTTTTTTTTTTTTTTTTTTTTTTTTTTTTTTTTTTTTTTTTTTTTTTTTTTT
In the case of B2, the binding result with RAD51 was “binds”.

The values are drawn from PMC3616717.
